Experimental data: the supplement of paper PMC10567573
± gives the standard deviation.

Experiment: protein stability index of a GFP-peptide fusion (GPS, HEK-293T) (PSI 1-6); higher = more stable
[1] = treatment: DMSO, c terminus: a fixed tail appended
[2] = treatment: MLN4924 1 uM, 8 h, c terminus: a fixed tail appended
[3] = treatment: DMSO, c terminus: native
[4] = treatment: MLN4924 1 uM, 8 h, c terminus: native
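Note: 24-mer peptide tiles fused after GFP, lentivirally expressed, FACS-sorted into six equal bins by GFP/DsRed ratio, decoded by Illumina sequencing, PSI is the read-weighted mean bin number.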

Sequence | protein stability index [1] | protein stability index [2] | protein stability index [3] | protein stability index [4]
EPPKCLDPCVISQEIMEKYNIKLK [CFHR2] | 2.84 ± 0.27 | 2.87 ± 0.34 |  | 
EQELKTVTYSLLKRLKERSLDTLL [SMAD6] | 2.35 ± 0.34 | 2.22 ± 0.31 |  | 
ERERLYPFSECGEAVSDSTPFLTN [ZNF263] | 4.16 ± 0.16 | 4.11 ± 0.27 |  | 
ERLQAIAEKRKRQAEIENKRRQLE [PALM] | 3.74 ± 0.16 | 3.73 ± 0.27 |  | 
ERLRLEQQKQQIMAALNSQTAVQF [ACBD3] | 3.36 ± 0.46 | 3.42 ± 0.28 |  | 
ERNFWDPSPQLDTQQEIKLCQKSN [WDR41] | 3.92 ± 0.34 | 3.94 ± 0.37 |  | 
ERPGAEGAPLLPPPLPPPSPPGSG [ACBD3] | 5.54 ± 0.24 | 5.47 ± 0.19 |  | 
ERVVREALEKLRSEMEEEKRQAVN [ZMYND11] | 4.59 ± 0.46 | 4.64 ± 0.063 |  | 
ESALIALDSEKPKKLRFHPKQLYF [EHMT1] | 2.38 ± 0.48 | 2.54 ± 0.19 |  | 
ESFGQNYPEEADGTLDCISMALTC [RBBP5] | 3.72 ± 0.26 | 3.53 ± 0.18 |  | 
ESFTVHFLPLNSAQTLHHKSCYNG [DNAAF3] | 2.4 ± 0.62 | 2.49 ± 0.42 |  | 
ESKLLRDLSAANEKNLLLQNQVDE [LRRC45] | 5.37 ± 0.2 | 5.15 ± 0.34 |  | 
ESTFKNTEISFILGQEFDEVTADD [FABP4] | 4.74 ± 0.13 | 5.03 ± 0.18 |  | 
ETQLKTLAQFPNTLLGNPKKRMRY [KCNA1] | 3.25 ± 0.46 | 3.61 ± 0.46 |  | 
EVFRFVQSCARAVVPSYIPLVKKH [CPOX] | 2.12 ± 0.21 | 2.37 ± 0.33 |  | 
EVKKKGKMKKLGQAMEEDLIVGLQ [HDAC6] | 4.55 ± 0.72 | 4.75 ± 0.14 |  | 
EVLLDHLKAHAEEKPPSGTKEKKH [PLAGL1] | 4.88 ± 0.2 | 5.08 ± 0.14 |  | 
EVQAVHKNTTYDLIANIVHDGKPS [USP39] | 3.69 ± 0.17 | 3.87 ± 0.32 |  | 
EYVPGGELFSYLRNRGRFSSTTGL [PRKX] | 2.53 ± 0.18 | 2.82 ± 0.27 |  | 
FAAEARYPIYVIPEPPPVSFQPYH [TENT5D] | 2.24 ± 0.22 | 2.26 ± 0.34 |  | 
FAEKGELRKSIFSESRKPTVSIME [TRIM29] | 2.37 ± 0.6 | 3.09 ± 0.59 |  | 
FASLRPSEPFLTPYLLGPDKNLTE [SLC19A2] | 2.59 ± 0.48 | 3.17 ± 0.62 |  | 
FCEELESMIQEQFKKGKNPTGLLA [ADD1] | 3.9 ± 0.2 | 3.81 ± 0.18 |  | 

Sequence | protein stability index [1] | protein stability index [2] | protein stability index [3] | protein stability index [4]
FCMFYAVLGIPLTLVMFQSLGERM [KCNK9] | 3.7 ± 0.32 | 2.95 ± 0.31 |  | 
FCVALSDYDLVLAEDEEMNRMHES [GNAI1] | 3.52 ± 0.41 | 3.43 ± 0.28 |  | 
FDDCLYALCVVDTIKRSSQTGEWQ [GFOD1] | 2.09 ± 0.42 | 2.29 ± 0.25 |  | 
FDRNADGYIDPEELAEIFRASGEH [TNNC2] | 5.32 ± 0.21 | 5.25 ± 0.2 |  | 
FEPRLLVQSIELQRPRFITSGGSN [VPS39] | 2.88 ± 0.3 | 2.9 ± 0.21 |  | 
FFIYGQVLYTDKTYAMGHLIQRKK [TNFSF13B] | 2.4 ± 1 | 2.12 ± 0.53 |  | 
FFRSLLPNYTMEGERPEEGVAGGL [TCF25] | 3.09 ± 0.32 | 3.52 ± 0.15 |  | 
FFSVIFMTVGILSNSLAIAILMKA [PTGFR] | 3.12 ± 0.26 | 2.75 ± 0.5 |  | 
FFYTAATNNPRFDKMEGNPICVQI [CRY1] | 2.92 ± 0.33 | 2.83 ± 0.67 |  | 
FGGAAAVAILAVAIGVALALRKK [BCL2L13] |  |  | 2.99 ± 0.2 | 2.81 ± 0.21
FGGVLEYFMIQALNQKTSEKMKKR [RHOBTB3] | 2.14 ± 0.66 | 2.24 ± 0.25 |  | 
FGIDVKEVDPTGHSFVLVTSLGLT [MAGEA10] | 2.43 ± 0.55 | 2.28 ± 0.59 |  | 
FGKKEKGRLIQLSRDGATGHVLLT [PPFIA4] | 2.71 ± 0.36 | 2.78 ± 0.2 |  | 
FHCSMSPGNLEKNRYGDVPCLDQT [PTPN9] | 2.79 ± 0.51 | 2.82 ± 0.47 |  | 
FHLDVEDYLSGVLILASELSRLSV [TSN] | 3.06 ± 0.74 | 3.04 ± 0.48 |  | 
FIQKRCNSLLEEETILHFFVQILL [NEK8] | 2.41 ± 0.36 | 2.28 ± 0.47 |  | 
FLFVLARVPAGIFKHTLSISRALL [MFSD9] | 3.29 ± 0.23 | 2.81 ± 0.11 |  | 
FLHLRTHTEERPYECNHCGKGFRH [ZNF8] | 2.79 ± 0.34 | 2.97 ± 0.36 |  | 
FLVAEWNEPSINFYKRRGASDLSS [SAT1] | 2.32 ± 0.28 | 2.43 ± 0.45 |  | 
FMYFLRGSLPWQGLKADTLKERYQ [CSNK1G1] | 2.43 ± 0.35 | 2.26 ± 0.17 |  | 
FNGLTLLLMAVVSMFTLPVVYVKH [RTN1] | 3.3 ± 0.28 | 3 ± 0.41 |  | 
FPESETKECPFRVNKVCGAACSSK [SERPINB5] | 2.8 ± 0.56 | 3.55 ± 0.66 |  | 
FPKQILDQNNVIENEETGEFSIDN [MIA2] | 5.136 ± 0.027 | 5.06 ± 0.24 |  | 

Sequence | protein stability index [1] | protein stability index [2] | protein stability index [3] | protein stability index [4]
FPRDHTSLALVQNGDVSAPSAILR [ANKRD40] | 3.72 ± 0.34 | 3.97 ± 0.2 |  | 
FRNAASTLTERPCYNRRASKLTY [ANKRD40] |  |  | 3.26 ± 0.21 | 3.16 ± 0.39
FRNPMMSKLRNYRKDLAKLHREVR [VTI1B] | 2.37 ± 0.36 | 2.46 ± 0.24 |  | 
FRSPSMPCSVIRPILKRLERPQDR [CDC25B] | 3.64 ± 0.19 | 3.56 ± 0.2 |  | 
FSDHTFRHYAYLRDSLSHLVPALR [INTS4] | 2.27 ± 0.18 | 2.36 ± 0.2 |  | 
FSFMYILVGLTVIGAFLNLVVLRF [KCNK9] | 3.18 ± 0.13 | 3.25 ± 0.31 |  | 
FSFSMKGHEKTAKSKTRSLLKRME [DLC1] | 2.84 ± 0.24 | 3.06 ± 0.23 |  | 
FSHSGRYIMTRDYLTVKVWDLNME [PPP2R2B] | 2.63 ± 0.49 | 2.3 ± 0.38 |  | 
FSTDAFSSPPQGASPVPESSLTAD [SNAP91] | 3.65 ± 0.57 | 4.25 ± 0.43 |  | 
FTCDLQHTETGEEVLRMCVAVKKK [VPS39] | 2.84 ± 0.3 | 2.96 ± 0.4 |  | 
FTEKLWPLFYPGIRAGRKNAAPLT [TRIM39] | 2.59 ± 0.74 | 2.25 ± 0.16 |  | 
FTFLQPLPLSPGVLSSTPDHSFSL [ATF4] | 2.2 ± 0.33 | 2.19 ± 0.33 |  | 
FTGKAEMGGPFSYVYFFCTVPEIL [TMEM106C] | 2.72 ± 0.59 | 2.16 ± 0.87 |  | 
FTKVVQPQEEIATKKLRLTKPSKS [INTS4] | 3.92 ± 0.57 | 4.07 ± 0.3 |  | 
FTMFLNLFGEKLSGTDAEETILNA [MYL5] | 2.12 ± 0.37 | 2.21 ± 0.2 |  | 
GADPKSVVCAFFKQGQCTKGDKCK [ZC3H15] | 3.82 ± 0.14 | 4.28 ± 0.37 |  | 
GAFRKGKSFILDFMLRYLYSQKES [ATL3] | 2.3 ± 0.42 | 2.22 ± 0.49 |  | 
GAQVNMPADSFESPLTLAACGGHV [ANKRD17] | 4.23 ± 0.23 | 4.24 ± 0.12 |  | 
GASTSCLLPVQVVTEHPLELIRVE [PCDHGC5] | 3.12 ± 0.62 | 3.29 ± 0.37 |  | 
GDPEEPLTGFSWRGGSDPETTGIQ [ATL3] | 5.13 ± 0.22 | 5.17 ± 0.12 |  | 
GDVLLDETLKHIKATEPTETVQTW [GOLPH3L] | 4.41 ± 0.27 | 4.45 ± 0.26 |  | 
GDWIGLYRHFLKSPNFDGWFKTRR [DENND6A] | 2.82 ± 0.038 | 2.49 ± 0.49 |  | 
GEDRAGPQSPSPGAPPAAKPARG [TSPAN10] |  |  | 5.32 ± 0.27 | 5.13 ± 0.12

Sequence | protein stability index [1] | protein stability index [2] | protein stability index [3] | protein stability index [4]
GEGNSSQNSRNKRAVQGPEETVTQ [TNFSF13B] | 5.51 ± 0.2 | 5.47 ± 0.096 |  | 
GEKPYECVQCGKSYSQSSNLFRHQ [ZNF24] | 2.4 ± 0.62 | 2.83 ± 0.56 |  | 
GELPNHPKPAGGAIPTKKSLPSPS [FBF1] | 5.2 ± 0.25 | 5.25 ± 0.16 |  | 
GFSPIIGRFCGQQNPPVIKSSGRF [NETO1] | 2.42 ± 0.29 | 2.52 ± 0.75 |  | 
GGGSNNGKTPVCHQCHKVIRGRYL [PDLIM7] | 2.81 ± 0.52 | 3.07 ± 0.42 |  | 
GGIKTVDMRDPTYRPLKQELQGLD [SPSB1] | 4.18 ± 0.37 | 4.33 ± 0.27 |  | 
GGNDLCVWNRKLDLLCKTSHLSDT [WDR41] | 3.16 ± 0.39 | 3.05 ± 0.18 |  | 
GGTLAEFIQKRCNSLLEEETILHF [NEK8] | 1.97 ± 0.24 | 1.99 ± 0.43 |  | 
GHEGSVSSCHFARDSSFLISGGFD [WDR88] | 2.98 ± 0.33 | 3.1 ± 0.13 |  | 
GHHLLKWIIKSNYQGLPVRCVKSI [SRPK2] | 2.2 ± 0.56 | 2.33 ± 0.34 |  | 
GHMDDGGYSMNFNMSSSRGPLPVK [RBMX] | 4.05 ± 0.21 | 3.95 ± 0.24 |  | 
GHSTDAREMSKTFIIGELHPDDRP [CYB5A] | 4.38 ± 0.15 | 4.66 ± 0.16 |  | 
GIQPGQEPPVTMIFMGYQNVEDEA [PALM] | 3.94 ± 0.35 | 4.02 ± 0.24 |  | 
GKSGLRVSCLGLGTWVTFGGQITD [KCNAB2] | 2.2 ± 0.61 | 2.04 ± 0.64 |  | 
GKWQQQGDLQDTKENREEARFQDK [CHGB] | 5.44 ± 0.36 | 5.33 ± 0.16 |  | 
GLEAASVYSDHTNTNNLTFLMDLP [RNF180] | 3.13 ± 0.26 | 3.22 ± 0.3 |  | 
GLLQYGSTVKNEFSLKTFKRKSEV [MATN2] | 3.02 ± 0.25 | 3.07 ± 0.35 |  | 
GLPRSRDCRVDLGSEVYRMLREPA [PDLIM4] | 3.08 ± 0.15 | 3.39 ± 0.2 |  | 
GLSAPARCLVRCLLRREPAERLTA [TRIB3] | 2.33 ± 0.12 | 2.16 ± 0.32 |  | 
GLSDRAKEAKEFLVQLRNMVQQIQ [TRIM9] | 2.17 ± 0.56 | 2.2 ± 0.23 |  | 
